Source: PMC7641770, “Novel polyadenylylation-dependent neutralization mechanism of the HEPN/MNT toxin/antitoxin system” (Nucleic Acids Research, 2020)
Where a chain is given by its changes, count along the chain named. Names may count otherwise.

Tests used:
[1] = target: T1, MntA antitoxin (SO_3165) of Shewanella oneidensis, untagged (Shewanella oneidensis, UniProt Q8ECH7 1-139); experiment: pull-down; details: partners not purified
T1 construct: also called MNT antitoxin; native MntA

crystal structure = target: the molecule itself; experiment: crystal structure
[2] = target: the molecule itself; experiment: crystal structure; co-expressed complex purified (Superdex 200, 20 mM Tris pH 8.0, 150 mM NaCl), sitting drop vapor diffusion at 16°C; (HepT)6-(MntA)2 hetero-octamer
[3] = target: T1, MntA antitoxin (SO_3165) of Shewanella …; experiment: as above; details: both partners purified
[4] = target: MntA D39E,D41E (SO_3165) of Shewanella oneidensis, untagged (Shewanella oneidensis, UniProt Q8ECH7 1-139, D39E | D41E); experiment: crystal structure; details: both partners purified

B1: HepT toxin (SO_3166) of Shewanella oneidensis, C-terminal His6 tag, polyadenylylated at Y104 by co-produced MntA (natural protein, UniProt Q8ECH6 1-133, looked up)
chain: MNDIIINKIATIKRCIKRIQQVYGDGSQFKQDFTLQDSVILNLQRCCEACIDIANHINRQQQLGIPQSSRDSFTLLAQNNLITQPLSDNLKKMVGLRNIAVHDYQELNLDIVVHVVQHHLEDFEQFIDVIKAE
notes: also called HEPN toxin; modified HepT
B1: binds [1]; binds (crystal structure).

B2: HepT Y104A (SO_3166) of Shewanella oneidensis, C-terminal His6 tag (natural protein, UniProt Q8ECH6 1-133, looked up)
chain: B1 chain with Y104A
notes: also called unmodified HepT^Y104A
B2: binds [2]; binds [3].

B3: HepT toxin (SO_3166) of Shewanella oneidensis, C-terminal His6 tag, unmodified (co-produced with an inactive MntA variant) (natural protein, UniProt Q8ECH6 1-133, looked up)
chain: B1 chain
notes: also called unmodified HepT
B3: binds [4].
